Target: T1, human CD39 naturally expressed on MOLP-8 cells (human, UniProt P49961 1-510)
T1 construct: whole, on cells; also called CD39 antigen; CD39 protein
T1 sequence (looked up): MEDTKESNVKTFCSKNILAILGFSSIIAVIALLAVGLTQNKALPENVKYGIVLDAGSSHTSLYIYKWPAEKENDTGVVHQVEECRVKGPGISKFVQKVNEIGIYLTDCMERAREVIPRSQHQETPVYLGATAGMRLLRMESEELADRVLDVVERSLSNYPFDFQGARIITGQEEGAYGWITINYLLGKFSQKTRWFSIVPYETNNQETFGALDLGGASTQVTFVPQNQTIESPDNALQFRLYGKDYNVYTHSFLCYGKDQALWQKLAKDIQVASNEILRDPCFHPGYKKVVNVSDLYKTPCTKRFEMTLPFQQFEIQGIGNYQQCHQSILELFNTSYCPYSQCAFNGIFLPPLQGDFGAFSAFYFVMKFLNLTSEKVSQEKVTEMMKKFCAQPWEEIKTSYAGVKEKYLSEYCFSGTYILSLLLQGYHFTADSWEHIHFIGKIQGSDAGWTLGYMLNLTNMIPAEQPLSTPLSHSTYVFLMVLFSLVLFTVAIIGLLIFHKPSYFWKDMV
Assay: flow cytometry on MOLP-8 cells, FITC goat anti-human H+L secondary antibody

- binding result: binds
B1: humanized monoclonal antibody F314 (antibody, human IgG4 S228P, kappa, V domains shown)
VH: QVQLVQSGAEVKKPGASVKVSCKASGYTFTNYWMYWVRQRPGRGLEWIGRIAPSSGATKYNEKFKNRATLTVDTSISTAYMELSRLRSDDTAVYYCARSGIYYDYDWFFDVWGQGTTVTVSS
VL: DIQMTQSPSSLSASVGDRVTITCKASQDINKYIGWYQQKPGKAPKLLIHYTSTLQPGVPSRFSGSGSGRDYTFTISSLQPEDIATYYCLQYHALLFTFGQGTKLEIKR
notes: Expressed in CHO-S cells; also called F314 monoclonal antibody; naked antibody

Source: patent publication US20250049941A1, “ANTI-CD39 Antibody-Drug Conjugate And Use Thereof” (priority 2021, published 2025)
